Laboratory results from the nanobody polyreactivity screen of Harvey et al. (2022).

Assay: yeast display, Sf9 membrane polyspecificity reagent, FACS + sequencing; frameworks hold sequencing errors
Procedure, shortened: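 Sorting gates, low and high (top ~1%), were placed on anti-HA fluorescence to track expression and on streptavidin fluorescence to track reagent binding. A clone's polyreactivity label is taken from the gate it came out of. The reagent was 10% biotinylated, detergent-solubilized Sf9 membrane, applied for 1 hour at 4 °C to galactose-induced yeast display cells.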

Sequence	polyreactivity (PSR sort gate)
EEELVESGGGLVQAGGSLRLSCAASGSTFVSNAMGWYRQAPGKERELVAAISSSGGSTYYADSVKGRFTISRDNAKNTVYLQMNSLKPEDTAVYYCVDYYIGYTHNYNYWGQGTQVTVSS	low polyreactivity
EEELVESGGGLVQAGGSLRLSCSASGSTFLVYSMGWYRQAPGKERELVAVITNSTVRTYYADSVKGRFTISRDNAKNTVYLQMDRLKPEDTAVYYCNADKEFAVLGQGMDYWGQGTQVTVSS	low polyreactivity
EVQLVESGGGLVQAGGSLRLSCAASVSTFGSNAMGWYRQAPGKERELVAAITNGGSTNYADSVKGRFTISRDNEKNTVYLQMNSLKPEDTAVYYCNAVQSAYNKFWIALWGGYWGQGTQVTVSS	low polyreactivity
HAQLQESGGGLVQAGGSLRRSCAASGSIFRFSGMGWYRLAPGKERELVASIGFGSITYYADRVNGRFTISRDNANNTVYLQMNSLKPEDTAVYYCAVQVQDESWLDYWGQGTQVTVSC	low polyreactivity
HAQLQESGVGLVQAGGSLRRSCAASGSIFRFSGMGWYRRATGKERELVASIGFGSITYYADRVKVRFTISRDNANNTVYLQMTSLKPEDTAVYYCAVQVQDESWLDYWGQGTQVTVSC	low polyreactivity
HVKLVDSGGGLVKAGGSLRLTCAASGITIYTNDMGWSRQARGKERELVAAITTNDGDTYYADSVKGRFTISRDNEKNTVYLQMNSLKPEDNAVYYCAADSGSTSEYEYWGQGTQVTVSS	low polyreactivity
HVQHVESGGGLVQAGGSLRLSCAASGRTFGYYALGWYRQAPGKERELVARISTRGGSTNYADSVKGRFTISRDNAKNTVFLQMNSLKPEDTAVYSCYARGGYGGGYDYWVQGTQVTVSS	high polyreactivity
HVQIVESGRGLVPAGGSLRLSCAASGFIFIRYSMGWSRQAPGKERELVAVISSGGGSTDYADSVKGRFTISRDYAKNTVFLQMISLKPEDTAVYYCAADFLPTYDPYYFWGQGTQVSVSS	low polyreactivity
HVQLEESGGGLVQAGGSLRLSCAASGRIFYPYAMGWYRQAPGKERELVAAISRSGGSTYYADSVKGRFTISRDNAKNTVYLQMNSLKPEDTAVYYCATGFYRAISHHGYDYWGQGTQVTVSS	low polyreactivity
HVQLGESGGGLVQAGGSLRLSCAASGRISVFYTMGGYRQAPGKEREMVAVIRTSGGRTNYADSVKGRFTISRDNAKNTVYLQMNSLKPEDTAVYYCAARVVRYGYKYYYWGQGTQVTVSS	low polyreactivity
HVQLLESGGGLVQAGGSLRLSCAASGSTFVYYAMGWYRQAPGKERELVAVITRGGRTYYADSVKGRFTISRDNAKTTVYLQMNSVKPEDSEVYYCNKVTPIYHDTVLDYWGQGTQVTVSS	high polyreactivity
HVQLQESGGGLVQAGGSLRLSCAASGNISYSRNMGWYRQAQGKERELVAAIDRGAITYYADSVKGRFTISRDNAKNTVDLQIYSLNPEDTAVYYCAAEYHDRWDHRYWGQGTQVTVSS	high polyreactivity
HVQLQESGGGLVQAGGSLRLSCAASGSIFQATYMGWYRQAPGKEREFVASITNGSITNYADSVKGRFTIGRDNEKDTLYLQMNSLKPEDSAVYYCAVDRQYIPAFHYWGQGTQVTVSS	low polyreactivity
HVQLQESGGGLVQAGGSLRLSCAASGSIFQATYMGWYRQAPGKEREFVASITYGSITNYADSVKGRFTIGRDNAKDTLYLQMNSLKPEDTAVYYCAVDRHYIPDFHYWGQGTQVTVSS	low polyreactivity
HVQLQESGGGLVQAGGSLRLSCAASGSIYQATYMGWYRQAPGKEREFVASITYGSITNYADSVKGRFTIGRDNANDTLYLQMNSLKPEDTAVYYCSVDRHYYWGQGTQVTVST	low polyreactivity
HVQLQESGGGLVQAGVSLRLSCAASGNISYSRNMGWYRQAPGKERELVAAIDRGAITYYADSVKGRFTISRDNAKNTVYLQIYSLKPEDTAVYYCAAEYHDRWDHRYWGQGTQVTVSS	high polyreactivity
HVQLQESGGGLVQEGGSLRLSCAASGSIFQATYMGWYRQAPGKELEFVASITYGSITNYADSVKGSFTIGRDNAKDTLYLQMNSLKPEDTAVYYCAVDRHYIPDFHYWGQGTQVTVSS	low polyreactivity
HVQLQESGGGMVQASGSPRLSCPASGNIFDADIMGWYRQAPGKQCELVASITDGGSTNYADSEKGRFTISSDNAKNTVYLQMNSLKPEDTAVYYCAAIAYPDIPTYFDYDSDYFYWGQGTHVTVSS	high polyreactivity
HVQLVDSGGVLVQAGGSLRLSCAASGSIYDANAMGRYRQAPGKERELVAAISSSGGITYYADSVKGRFTISRDNAKNTVYLQMNSLKPEDTAVYYCVAEYGYIDYSYLFWSDYWGQGTQVTVSS	high polyreactivity
HVQLVESAGGLVQAGGRLSLSCAAYGSICDRYAMGWYRQAPGKEREKVAAIYSSGGRTYYADSVKGRFTISRDNAKNTVYLQMKSLKPEDTAVYYCNAEFWGGTPVAFSADYEYWGQGTQVTVSS	high polyreactivity
HVQLVESGGGLVQAGASLRLSCAASGSTFSTYGMGCSRQAPGKVRELVADISDSTGSTYYADSVKGRFTISRDNAKYTVYLQMNSLKPEDNAVYYCAADSGEPSWGYDYWGQGTQVTVSS	low polyreactivity
HVQLVESGGGLVQAGGCLRLSCAASGIIFLYNAMGWYRQAPGKERELVATITWSGGSTYYADSVKGRFTISRDNAKITVYLQMKSLKPEDTAVYYCAADYYYGYEFGYWGQGTQVTVSS	low polyreactivity

Sequence	polyreactivity (PSR sort gate)
HVQLVESGGGLVQAGGSLRISCAASGRIFGRNAMGWYRQAPGTERELVATISGGGSTYYADSVKGRFTISRDNAKNTVYFQMNSLKPEDTAVFYCAVGHRWWGAYAGYDYWGQGTQVTVSS	low polyreactivity
HVQLVESGGGLVQAGGSLRISCAASGRTFYKNAKGRYRQAPGKEREFVASISVSGGRTYYADSVKGRFTISRDNAKNTVYLQMNILNPEDSAVYYCNARASPLSQRDYWGQGTQVTVSS	low polyreactivity
HVQLVESGGGLVQAGGSLRLICGASGFTFPNYAMGGYRHAPGKERELVAAITSGGGRTNYADSVKGRFTISRDNAKITVYLQMNSLKPADTAVYYCNAEKTYLGSRYRPYNYWGQGTQVTVSS	low polyreactivity
HVQLVESGGGLVQAGGSLRLSCAASGFMFSGYAMGWYRQAPGKVRELVAAITWSGSNTFYADSVKGRFTISRDNAKNTVYLQRNSLKPEDTAVYYCNAVSKYKRSDYYYWGQGTQVTVSS	high polyreactivity
HVQLVESGGGLVQAGGSLRLSCAASGFTIKYYGMGWYRQAPGKERELVAAISRRGGSTYYADSVKGRFTISRDNAKNTVYLQMNSLKPEDTAVYYCNAQFARSSGFNYWGQGTQVTVSS	high polyreactivity
HVQLVESGGGLVQAGGSLRLSCAASGINFSWYPMGWYRQAPGKERELVAAISSSGGTTFYADSVKGRFTISRDKAKNTVYLQMNSLKPEDTAVYYCAVVGPPYYTWRVWRPAYDYWGQVTQVTVSS	high polyreactivity
HVQLVESGGGLVQAGGSLRLSCAASGLNFLYYGMGWYRQAPGKERELVAAISSGGGTYYADSVKGRFTISRDNAKNTVYLQMNSLKPEDTAVYYCAVDPQWTYWSTYRYDYWGQGTQVTVSS	low polyreactivity
HVQLVESGGGLVQAGGSLRLSCAASGRIFKYYAMGWYRQAPGKERELLAAITYSGGSTNYADSVKGRFTISRDNAKNTVYLQMKSLKPEDTAVYYCNAYSYRNFLSHYNYWGQGTQVTVSS	high polyreactivity
HVQLVESGGGLVQAGGSLRLSCAASGRIFPGNVMGWYRHAPGKERELVAGIDSSGGSTSYADSVKGRFTISRDNAKNSVYLQMNSLKPEDTAVYYCAKVRDQARYQWGYQEFDYWGEGTQVTVSS	low polyreactivity
HVQLVESGGGLVQAGGSLRLSCAASGRIFTLYDMGWYRQAPGKERELVAAISNSAGSTYYADSVKGRFTISRDNAKNTVYLQMNSLKPEDTAVYYCAAELWSWGGARDYWGQGTQVTVSS	high polyreactivity
HVQLVESGGGLVQAGGSLRLSCAASGRTFARYAMGWYRQAPGKERELVAAITRGGRTNYADSVKGRFTSSRDNAKNTVYLQMNSLKPEDTAVYYCNAYFVNPYDYWGQGTQVTVSS	high polyreactivity
HVQLVESGGGLVQAGGSLRLSCAASGRTFGAYTMGWYRQAPGKERELVAAINWSGGDTYYAYSVKGRFTISRDNAKNTVYLQMNSQKPEDTAVYYCNAEPRYGTYDYWGQGTQVTVSS	low polyreactivity
HVQLVESGGGLVQAGGSLRLSCAASGRTFTYNTMGVYRKEPGKERELVAAISSSGGSTYYADSVKGRFTISRDNAKNTVYLQMNSLKPEDTAVYYCAKRYFSSSRYYYWGQGTQVTVSS	high polyreactivity
HVQLVESGGGLVQAGGSLRLSCAASGRTFYIYAMGWYRKAPGKERELVAAITWSGGTTYYADSVKGRFTISRDNAKNPVYLQMTSLKPEDTAVYYCAADSYGFYLESYYWGQGTQVTVSS	low polyreactivity
HVQLVESGGGLVQAGGSLRLSCAASGRTLYRNAMGWYRQAPGKERELVARITWSGASTYYADYVKGRFTISRDNAKNTVYLQMNSLKPEVTAVYYCAAQYLSRRYGPYYTYNYWGLGTQVTVSS	high polyreactivity
HVQLVESGGGLVQAGGSLRLSCAASGSIFDYNAIGWYRQAPGKERELVASSSGDSGSTYYADSVKWRFTISRDYAKNTVYLQMNSLKPEDTAVYYCAAPYVSWDYRYYYWGQGTQVTVSS	low polyreactivity
HVQLVESGGGLVQAGGSLRLSCAASGSIFESNAMGWYRQAPGKERELVAAYADSVKGRFTISRDNAKNTVYVQMNSLKPEETAVYYCAARIGTGVLPGRGANSHMDYWGQGTQVTVSS	low polyreactivity
HVQLVESGGGLVQAGGSLRLSCAASGSIFYYNVMGWYRQAPGKERELVAAIDIDGSTYYADSVKGRFTISRDNAKNTVYLQMNSMKPEDTAVYYCNAQAPYWFSFYYDHKYDYWGQGTQVTVSS	low polyreactivity
HVQLVESGGGLVQAGGSLRLSCAASGSNFDKYAMGGYRQAPGKERELGAAISRGGSSTYYADSVKGRFTISRDNAKNTVYLQMNSLKPEDTAVYYCAARIRNWPAMDYWGQGTQVTVSS	high polyreactivity
HVQLVESGGGLVQAGGSLRLSCAASGSTFGYNARGWYRQAPGKERELVAVITDSGGSTKYADSVKGRFTISRDNAKKTVYLQMNSLKPEDTAVYYCAKRSSQTRRAYDYWGQGTQVTVSS	low polyreactivity
HVQLVESGGGLVQAGGSLRLSCAASGSTFILNTMGWYIQAPGKERKLVAAITRRGSSTYYADSVKGRFTISRDNAKNTGYLQMNSLKPEDTAVYFCAAFSYNLGMDYWGQGTKVTVSS	high polyreactivity
